{"source": "ChEMBL document CHEMBL1128147", "about": "“Mechanistic support for the stepwise process for inactivation of class A -lactamases by clavulanate” (Bioorg Med Chem Lett, 1995)", "substrate": "O=C(O)[C@H]1C(CCO)O[C@@H]2CC(=O)N21", "description": "Km for inactivation of TEM-1 beta-lactamase", "data": [{"protein": "Beta-lactamase (Enterobacter cloacae), P05364 (protein) MMRKSLCCALLLGISCSALATPVSEKQLAEVVANTITPLMKAQSVPGMAVAVIYQGKPHYYTFGKADIAANKPVTPQTLFELGSISKTFTGVLGGDAIARGEISLDDAVTRYWPQLTGKQWQGIRMLDLATYTAGGLPLQVPDEVTDNASLLRFYQNWQPQWKPGTTRLYANASIGLFGALAVKPSGMPYEQAMTTRVLKPLKLDHTWINVPKAEEAHYAWGYRDGKAVRVSPGMLDAQAYGVKTNVQDMANWVMANMAPENVADASLKQGIALAQSRYWRIGSMYQGLGWEMLNWPVEANTVVEGSDSKVALAPLPVAEVNPPAPPVKASWVHKTGSTGGFGSYVAFIPEKQIGIVMLANTSYPNPARVEAAYHILEALQ", "values": [{"measurement": "Km", "result": 2.2, "unit": "µM"}]}]}
